Ki data for twelve molecules are collected here from patent US20130012432A1 (Novo Nordisk, published 2013).

Positions of bridges follow the written chain, without caps; N, C: chain ends. Non-standard residues stand in square brackets, D forms with d. Groups on a side chain read outwards from the residue. Primed or numbered codes have the meaning given here. *: point of attachment. X2 = (2-(2-(16-(tetrazol-5-yl)hexadecanoylamino)ethoxy)ethoxy)acetyl, O=C(CCCCCCCCCCCCCCCc1nn[nH]n1)NCCOCCOCC(=O)*; X5 = NH(2-(2-(2-(17-carboxyheptadecanoylamino)ethoxy)ethoxy)ethyl), O=C(O)CCCCCCCCCCCCCCCCC(=O)NCCOCCOCCN*; X6 = (2-(2-(17-carboxyheptadecanoylamino)ethoxy)ethoxy)acetyl, O=C(O)CCCCCCCCCCCCCCCCC(=O)NCCOCCOCC(=O)*; X3 = (2-(2-(15-carboxypentadecanoylamino)ethoxy)ethoxy)acetyl, O=C(O)CCCCCCCCCCCCCCC(=O)NCCOCCOCC(=O)*; biscarboxymethyl = Lys(biscarboxymethyl) = Nepsilon-bis(carboxymethyl)-L-lysine; bis(carboxymethyl) = Lys(biscarboxymethyl) = N6-bis(carboxymethyl)-L-lysine; Palmitoyl(16-(5-tetrazolyl)) = O=C(CCCCCCCCCCCCCCCc1nnn[nH]1)*; biscarboxymethyl(3) = Nepsilon-bis(carboxymethyl) on Lys; Lys(CH2CO2H)2 = N[C@@H](CCCCN(CC(=O)O)CC(=O)O)C(=O)O; C18 diacid = O=C(O)CCCCCCCCCCCCCCCCC(=O)*; Orn = NCCC[C@H](N)C(=O)O; Dab = NCC[C@H](N)C(=O)O; AEEA = NCCOCCOCC(=O)O

The chains are these.
B1: Ac-c[Glu-His-D-Phe-Arg-Trp-Dab]-Pro-Pro-Arg-Asp-Lys(biscarboxymethyl)-Lys[(2-{2-[16-(tetrazol-5-yl)hexadecanoylamino]ethoxy}ethoxy)acetyl]-NH2 (peptide)
peptide: Ac-EH[dF]RW[Dab]PPRDK(biscarboxymethyl(3))K([AEEA-Palmitoyl(16-(5-tetrazolyl))])-NH2
modifications: lactam 1-6
B2: Ac-c[Glu-His-D-Phe-Arg-Trp-Orn]-Pro-Pro-Arg-Asp-Lys(biscarboxymethyl)-Lys({2-[2-(15-carboxypentadecanoylamino)ethoxy]ethoxy}acetyl)-NH2 (peptide)
peptide: Ac-EH[dF]RW[Orn]PPRDK(biscarboxymethyl)K(X3)-NH2
modifications: lactam 1-6
B3: Ac-c[Dab-His-D-Phe-Arg-Trp-Asp]-Pro-Ser-Ser-Ser-Lys(biscarboxymethyl)-Ser-Ser-NH(2-{2-[2-(17-carboxyheptadecanoylamino)ethoxy]ethoxy}ethyl) (peptide)
peptide: Ac-[Dab]H[dF]RWDPSSSK(biscarboxymethyl(3))SS-X5
modifications: lactam 1-6
B4: Ac-c[Orn-His-D-Phe-Arg-Trp-Asp]-Pro-Ser-Ser-Ser-Lys(biscarboxymethyl)-Ser-Ser-Lys({2-[2-(17-carboxyheptadecanoylamino)ethoxy]ethoxy}acetyl)-NH2 (peptide)
peptide: Ac-[Orn]H[dF]RWDPSSSK(bis(carboxymethyl))SSK([AEEA-C18 diacid])-NH2
modifications: lactam 1-6
B5: Ac-c[Glu-His-D-Phe-Arg-Trp-Orn]-Pro-Pro-Arg-Asp-Lys(biscarboxymethyl)-Lys({2-[2-(17-carboxyheptadecanoylamino)ethoxy]ethoxy}acetyl)-NH2 (peptide)
peptide: Ac-EH[dF]RW[Orn]PPRDK(biscarboxymethyl)K(X6)-NH2
modifications: lactam 1-6
B6: Ac-c[Orn-His-D-Phe-Arg-Trp-Asp]-Pro-Pro-Arg-Glu-Lys(biscarboxymethyl)-Lys({2-[2-(15-carboxypentadecanoylamino)ethoxy]ethoxy}acetyl)-NH2 (peptide)
peptide: Ac-[Orn]H[dF]RWDPPREK(biscarboxymethyl)K(X3)-NH2
modifications: lactam 1-6
B7: Ac-c[Asp-His-D-Phe-Arg-Trp-Orn]-Pro-Pro-Arg-Asp-Lys(biscarboxymethyl)-Lys[(2-{2-[16-(tetrazol-5-yl)hexadecanoylamino]ethoxy}ethoxy)acetyl]-NH2 (peptide)
peptide: Ac-DH[dF]RW[Orn]PPRDK(biscarboxymethyl(3))K([AEEA-Palmitoyl(16-(5-tetrazolyl))])-NH2
modifications: lactam 1-6
B8: Ac-c[Glu-His-D-Phe-Arg-Trp-Orn]-Pro-Pro-His-Asp-Lys(biscarboxymethyl)-Lys[(2-{2-[16-(tetrazol-5-yl)hexadecanoylamino]ethoxy}ethoxy)acetyl]-NH2 (peptide)
peptide: Ac-EH[dF]RW[Orn]PPHDK(biscarboxymethyl)K(X2)-NH2
modifications: lactam 1-6
B9: Ac-c[Glu-His-D-Phe-Arg-Trp-Orn]-D-Pro-D-Pro-Arg-Asp-Lys(biscarboxymethyl)-Lys[(2-{2-[16-(tetrazol-5-yl)hexadecanoylamino]ethoxy}ethoxy)acetyl]-NH2 (peptide)
peptide: Ac-EH[dF]RW[Orn][dP][dP]RDK(biscarboxymethyl(3))K([AEEA-Palmitoyl(16-(5-tetrazolyl))])-NH2
modifications: lactam 1-6
B10: Ac-c[Asp-His-D-Phe-Arg-Trp-Lys]-Pro-Pro-Arg-Asp-Lys(biscarboxymethyl)-Lys[(2-{2-[16-(tetrazol-5-yl)hexadecanoylamino]ethoxy}ethoxy)acetyl]-NH2 (peptide)
peptide: Ac-DH[dF]RWKPPRD[Lys(CH2CO2H)2]K([AEEA-Palmitoyl(16-(5-tetrazolyl))])-NH2
modifications: lactam 1-6
SMILES: CC(=O)N[C@H]1CC(=O)NCCCC[C@@H](C(=O)N2CCC[C@H]2C(=O)N2CCC[C@H]2C(=O)N[C@@H](CCCNC(=N)N)C(=O)N[C@@H](CC(=O)O)C(=O)N[C@@H](CCCCN(CC(=O)O)CC(=O)O)C(=O)N[C@@H](CCCCNC(=O)COCCOCCNC(=O)CCCCCCCCCCCCCCCc2nnn[nH]2)C(N)=O)NC(=O)[C@H](Cc2c[nH]c3ccccc23)NC(=O)[C@H](CCCNC(=N)N)NC(=O)[C@@H](Cc2ccccc2)NC(=O)[C@H](Cc2c[nH]cn2)NC1=O
B11: Ac-c[Orn-His-D-Phe-Arg-Trp-Asp]-Pro-Ser-Ser-Ser-Lys(biscarboxymethyl)-Ser-Ser-Lys[(2-{2-[16-(tetrazol-5-yl)hexadecanoylamino]ethoxy}ethoxy)acetyl]-NH2 (peptide)
peptide: Ac-[Orn]H[dF]RWDPSSSK(bis(carboxymethyl))SSK([AEEA-Palmitoyl(16-(5-tetrazolyl))])-NH2
modifications: lactam 1-6
B12: Ac-c[Orn-His-D-Phe-Arg-Trp-Asp]-Pro-Pro-Arg-Glu-Lys(biscarboxymethyl)-Lys({2-[2-(17-carboxyheptadecanoylamino)ethoxy]ethoxy}acetyl)-NH2 (peptide)
peptide: Ac-[Orn]H[dF]RWDPPREK(biscarboxymethyl)K(X6)-NH2
modifications: lactam 1-6

T1 sequence (Q01726 whole entry): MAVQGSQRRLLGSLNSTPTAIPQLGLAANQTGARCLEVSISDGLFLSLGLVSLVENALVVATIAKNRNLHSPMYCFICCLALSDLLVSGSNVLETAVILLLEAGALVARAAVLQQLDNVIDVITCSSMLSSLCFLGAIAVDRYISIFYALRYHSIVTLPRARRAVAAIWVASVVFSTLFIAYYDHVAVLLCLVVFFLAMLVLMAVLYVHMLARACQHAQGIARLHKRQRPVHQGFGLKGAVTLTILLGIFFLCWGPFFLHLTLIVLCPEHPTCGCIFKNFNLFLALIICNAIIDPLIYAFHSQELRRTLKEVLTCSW

The first experiment has as its target T1, MC1 receptor (UniProt Q01726 1-317, limits assumed).
T1 construct: whole, on cells; also called melanocortin receptor subtype 1; melanocortin receptor 1
As to the kind of experiment: 125I-NDP-α-MSH displacement, BHK-MC1 membranes (Assay IV).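 Note: membrane incubations stopped by filtration, retained radioactivity counted, Ki fitted by nonlinear regression to binding curves.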
Protocol: The MC1 receptor binding assay was performed on BHK cell membranes stably expressing the MC1 receptor. […] Test compounds were dissolved in DMSO. […] Alternatively, HSA may be substituted with ovalbumin. The samples were incubated at 30° C. for 90 min. in Costar round-bottom microtiter plates. Incubation was terminated by filtration on a Packard harvester filtermate. […] The filters were washed with ice-cold 0.9% NaCl 8-10 times. […] The plates were counted in a Topcounter (1 min/well).
The data were analysed by non-linear regression analysis of binding curves, using the Windows™ program GraphPad™ Prism (GraphPad Software, USA).
By Ki is commonly meant the equilibrium dissociation constant of an inhibitor or competing ligand from its target. Low values mean tighter binding, high ones weaker binding. Consider B1, for which the Ki turned out to be 3420 nM.
In turn, B2 gave a Ki of 3970 nM.
B3: the Ki came to 9130 nM.
The same measure, in the same setting: in the case of B4 it was 141 nM; in that of B5, 4690 nM; in that of B6, 2140 nM.
Still for that read-out and setting: in the case of B7 it was 2540 nM; in that of B8, 5170 nM; in that of B9, 8840 nM.
The same measure, in the same setting: the result for B10 reads 279 nM; that for B11, 5610 nM; that for B12, 1940 nM.

The target in a further experiment is T2, human MC4 receptor (human, UniProt P32245 1-332).
T2 construct: whole, on cells; Assayed as membranes of BHK cells stably expressing the receptor; also called melanocortin receptor subtype 4; melanocortin receptor 4
T2 sequence (P32245 whole entry): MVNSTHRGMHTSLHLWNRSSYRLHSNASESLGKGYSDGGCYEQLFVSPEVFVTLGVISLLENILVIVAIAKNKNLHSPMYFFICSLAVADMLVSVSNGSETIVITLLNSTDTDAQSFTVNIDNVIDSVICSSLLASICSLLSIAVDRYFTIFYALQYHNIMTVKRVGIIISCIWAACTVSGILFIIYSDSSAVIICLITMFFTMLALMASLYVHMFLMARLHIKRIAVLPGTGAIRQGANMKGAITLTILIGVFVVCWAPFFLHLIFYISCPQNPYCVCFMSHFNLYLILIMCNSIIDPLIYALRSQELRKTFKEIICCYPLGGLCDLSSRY
As to the kind of experiment: 125I-NDP-α-MSH displacement, BHK-human MC4 membranes (Assay V).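 Note: Filter-retained radioactivity read by gamma counting, with affinity obtained through non-linear regression fitting of the binding curves.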
The molecule B1 yielded a Ki of 39 nM.
On the same count and under the same terms, the result for B2 reads 5.8 nM.
As for B3, the Ki is 10.8 nM.
B4: the Ki came to 0.8 nM.
Same read-out and setting: the result for B5 reads 0.9 nM.
The same measure, in the same setting: the result for B6 reads 2.2 nM; that for B7, 33 nM; that for B8, 3.58 nM.
Still for that read-out and setting: the result for B9 reads 4.6 nM; that for B10, 13 nM.
In turn, B11 returned a Ki of 0.9 nM.
On the same count and under the same terms, the result for B12 reads 0.8 nM.
